The data set in a line: protease stability score; higher = more stable; yeast display proteolysis, trypsin and chymotrypsin.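 Further: relative to predicted unfolded state with 0 unfolded-like and 1 meaning tenfold more protease.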
Regarding “SEEEEEAQRFFEEWSKSWVTGDEDLTLHLLDPNVKVDIGDKVYHGRESYLELLHLILREARVHSFHMHRLEVIGEKANIDSRVDHEVGDKRDTVHMNMIVVKINGRWILKSIQIK”, the protease stability score is 2.58.
Turning to “SEEEEEARDILKMLFTALDTGNEEYFLNLIDPNVRISVGNYTIVGREQWTEHMRRVKNMQIDDISIKDIKFQGELLRIHGHLVGRFDGQHSHFHVDIIFRKVNGQWHQKEIIIK”, the protease stability score is 1.99.
Sequence “SEEEEEARKAFDDFYKSLETGDEEDLSKMIDPHVRIDINGREVHGREYAQTFWRDLIEKVKNLTLHLRDFRVIDGRLHSKMEIHQGEFHTEVNIHSKKINGRWLVQTFEFR” showed a protease stability score of 1.84.
With “SEEEEEARKFSEDLIRSTRTGDEKAWNDLLDPDVRIDINGKTHHGREEFLKLLQHLRERADHWRIELKHTDVYDGKVHHDIHVQISVGDKTFHHRIHLIVVKIDGKWLLKRVDVR”, the protease stability score was determined as 2.16.
In turn, “SEEEEEAWRSTEKWTHSEKTGDFESLLRLADPNARVHVNGRELVGMETVIRRFIEHVERFKNIRIQHHTEHIEFYGDKVIIDSRLHISIGDKTITITIELVTTKFNGRWLLQEITIK” showed a protease stability score of 0.475.
Regarding “SEEEEEFRERLRILYEKLLTGDWRFFLKLADPNVRSIIDGRTWIGRDEFETAMRKFDEDLGFDHTHIRHYHIQGEKVQIHFEVRQGDKRITVEINLVIVNGRYKFVELRLSIH”, the protease stability score stood at 1.4.
Then “SEEEEEFRRAVEFIERTIQTGDERILRELADPHVRLEIGDKHDHGRERVVEIWVSIFEKFKNARWEIRDVKVIDGKIYIDGSLIIDGKEHQTLIVSEKVNGRWHLKSIHIH”, with 2.17.
In the case of “SEEEEEHEELMRLMESTVRTGDFELFEKLADPNVRINIDGKDVHGREEFLEHWVRRWRDLGVNHLRIEHRRVYNGVIIIKVKILVNGREITLHIEARKVDGRWSVHKVEQH”, the protease stability score turned out to be 2.25.
The sequence “SEEEEEIEKMVRHMIHNLLTGNEDVIDKFVDPHVQLHINGRDIHGRENIRREIRRTLEELGVDHWIVHHIEIRRVGDKAIAINHGTIVINGRNVDTEFIFWLHKVNGRWMVHSYEIRIR” yielded a protease stability score of 1.4.
“SEEEEEIERMFKDWSRAVRTGDEERYDHLADPNVRIHIGDKDVHGRENFIKYLHHIRIRDVRLRDFRIYDGRVELDIEVDRHVNGRDDRTQVIMVLLKFNGQWHVESVYVK” had a protease stability score of 1.2.
As to “SEEEEEIERYVQHLVHNILTGDWEMIQELADPNAKIDIDGRHFHGREQFVDLMLRLIESLGIDHLRLTHVRIQGDYMELHVEVHVGDKRVELESFATKIDGRWFVKSFTKR”, the protease stability score stood at 1.97.
With “SEEEEEIKTWTDLFINLWMTGDFHTLVHLLDPNVKAEIDGVDVHGRESVEKMLRIFIKRLGADHSDVRDSSIVNGRLDIELESDVNGRIRTIDIHVLIINGRVKSLKVDIR”, the protease stability score is 2.46.
Consider “SEEEEEIRRTIEMLLKAWQTGDEEFWMRLFDPHYRFEINGKVYHGREVMRLERRRIDYIHRVEYRIDHIDTQGDKVIIRFTLHLDVEFDGVRTELHEHRVIIIEKVNGQWRLKSVEIE”, for which the protease stability score stood at 1.46.
Consider “SEEEEELKKFLDIFLRALRTGDFDESLRLMDPRYRSIVGDKRHIGMENLYRWLTEMRIERVHFELDSFRIQGNKLEIDIRNDVDGQIDGKQFRIEFEVHIHMEKYNGKWVVHVLEIR”, for which the protease stability score was found to be 0.932.
“SEEEEELKRALKIIIEVMLTGDEKTHHELADPHARLEIHQGNYIEHQHGREIVDKVLRDWIEKLGIDHLHLERVDKQGNKLFVHVHVKVGDKHSKLDIVASKVDGRWVLHEVRIIDE”: the protease stability score came out at 1.84.
Take “SEEEEELRIANELVKRSLDTGDEDLERELADPNTRVNYGDKILHGRHEVVRWLRRIDHIHVHWRDVRIYNGRIEMDGRLVLRVGDKSFSLETRIYMEKVDGQWVIKDHEIR”: the protease stability score is 0.314.
For the sequence “SEEEEELTKWKKILEEALKTGDWRLIEELFDPHVRFIINGRHIHGMEVRLKEQEELGVNHESQELRDKHIEHQGDKVVINGHLNKIVFVNGKDLHDRYDIIFIYTKINGRWYVKRMIVN”, the protease stability score came out at 0.502.
On to “SEEEEEMEKVAKRWFWAVLTGNEDELHELLDPEAKSDVNGRDTHGREEVVRLMTEHVEKLGVDHVKVHDVKIQGNKFHFDGILIFNGVTVHSRVELDLINGKVHYMSIKLQ”, for which the protease stability score was 1.1.
Consider “SEEEEEMERILKYIFRLLTTGNWKELTDNLDPDVRIIIGDKTLIGREEFQRKFKDDHDKFKNMRLEIKDSHMQGDKIIIHLQVDIGDKHFEVIIYVVKINGRWHLKTLEIR”, for which the protease stability score was 2.09.
As to “SEEEEEMKLAKRLLENISETGDERELEELLDPNVRIVIGDKHEHGRESVEHWFRRIDHIKHFEIERVTVFDGRVEMHGRMVGTINGKHKNTRITLIAVKINGRWVLQHRILE”, the protease stability score was 0.245.
Regarding “SEEEEEMKRFIEDELRAWRTGDEDLIHEQFDPHVRVIIGEFEYHGRELLHEMFNRIDHIEHIELRIHHVHLQGDKAHLEVEEREHGVFDGKRINVSREINIIIHKIDGRWVHTIIIIE”, the protease stability score was found to be 0.606.
As to “SEEEEEMRFFMEVWIHDLRTGDFESLHKNADPRTRVEINGVELHGREHFTEWAERIKGAKFEVKDFKIQGDKVILHGKFSVNGVEHEMTVIFLKVNGRWLQESMTLK”, the protease stability score was determined as 0.603.
The sequence “SEEEEEMRHHLEIFIESLRTGDEDEIANNADPNWINVVGDKENIGREHILTWYERFYEEIRIHDMKIRHVDVQGEKMRVEGELNKDVNGREIRTEHRWEFDIVNGRLRSLQVRVK” gave a protease stability score of 0.919.
Take “SEEEEEMRRMVDDIFRMLLTGDWRDFLHLADPTVRLHIGDKQAHGRTQVFELLKLYLHEWREKTIVHESIHHINGVSIIHGSLRVRINGQEHEFKVTWNIFIYDGRLKSMEIRFH”: the protease stability score was determined as 0.337.
On to “SEEEEEMRRWFEILIRAIRTGDEHVLKRLIDPDAQEDVNGKRIHGMEDMSRLLSEMRIKSWEIRRSHFVGNKIELDGHRRGHVNGRDIDDHVIIHILKIDGKWTLHRVEVS”, for which the protease stability score was 2.12.
Then “SEEEEENRKRVEFFKKVWETGDEHSMEELMDPNVRLRIVVNGRHEHYHGREEVVHILQDELRKIKNVKVNLKRIDVVDGRAHSDIHVDQGDWRMKMEVILIKVNGRWRMKELELHVI”, with 1.78; and “SEEEEESKIISKLAIEETKTGDFESIRRNADPRARSDVDGQEMHGRELLEHIFRWIIEKAGVDKVETDLHELRIVGDKVHVRTKLHIGDWRIEVEIIVRKINGRWHLHSMRFSLR”, with 0.646; and “SEEEEESKYALKIERELLYTGDWHLLTRYADPDVRATINGQKVIGRELFSHIFLEELDKLGMRIHDIRETHWTLINGVAIHHMRINTRQGEKSYHTEMNLISLKVDGRWLIQSYELG”, with 0.523.
Then “SEEEEESRFMFELIEHFLKTGNWEMISKLADPNMKTVINGKTYHGREMLIHEFEKLGADHITIHDYKDIDGQVIIHTRIHVGDKTYDVVIISEKVDGKWHLKEIHIR”, with 1.99.
For “SEEEEESRHAIEMTLKTLITGDEHMIQDLADPRAQTHYGDKEYHGREELFRLMHEFILKIKNLRIELHDHHIQGDKIILDVRWRFDGKSFHVTIESRKINGRWLHHIFIVK”, the protease stability score was determined as 0.582.
Sequence “SEEEEESRKMLELFKELLETGDEEDMTKLADPNVRIIYDGKHLHGRHVAHDVWHELSNRVKNAKFHFDVIKIVGEKVILEITIHVDGQDIESSTILDKFNGKWYMEEVFFH” showed a protease stability score of 1.92.
Then “SEEEEESRRFMQHMSRSLATGDWRQVRNLLDPHVRTDINGRDLHGWRDYVRHVLELGIKHIHIEDIRLVGDYAHIDGEMDVNGRDVRVHILVLKINGRWVIESEELK”, with 0.427; and “SEEEEETEEVADLHLETLKTGNEDLLEDLLDPNVRVIVNGKHHIGRHFLLKWVTEFGIKHFELKRREIDIQGEKADIHIQGNMYFNGRTVRAHIHQEVTKFDGRWFNHRVEIEFK”, with 1.84; and “SEEEEETRKFAHDLVNIHRTGDERKINDLFDPHVRVHIGNKEIVGRELFARWMHEFLLKHGFTEEIRIDDVDLYGNKAHIDGTLIIRINGVEHRHRVELIVNKINGKWLMEYVRVR”, with 1.6.
As for “SEEEEEVEEFIHIFTESLKTGDEHSLRRLVDPHVRIEWNGRTHHGWQMFTRLVREARVEIVVRDIRVINGRAIINGELRYEQGDKTFTTEIEIIVVKFDGKWHMHHVRYK”, the protease stability score was 2.21.
The sequence “SEEEEEVHKFMEDLARAYLTGDEKRFRELVDPNVKSNIDGQTIHGREELTKWVSDSAKKYGVDHLEMRVRTINIQGNKAHMDGEIVLEYGDKRVSRQVEIVVTKINGQWLLEREHIH” registered a protease stability score of 1.88.
As for “SEEEEEVLRFLKEWIHRLRTGDEDILRELLDPDVRIEAENRESHGREEATRLLSEIRFEHFFIESIKVQGNKVSIHGRVHGVINGKKFKHHIHIILVKVNGKWQFREIDIH”, the figure is -0.107.
For the sequence “SEEEEEVVRIWKLLLELEKTGNEENIARLADPHVRTDINGQESHGREHLAKLVRHLFHEIRIKDFKIRRLELQGEKLIVDGELHGNYDGQHEVVDTEIHIYVVNGKLKSITVRHH”, the protease stability score amounted to 1.47.
In turn, “SEEEEEWHRLIEHWMRKWLTGDEERLARLADPNVRLEDENHQSHGREEMARFLHEKILKLGVDHTRIRHYRDQGEYLHLDFEVEINGRRVRVKVHVVIIDGVVKELKFHVE” had a protease stability score of 1.19.
Then “SEEEEFAERLVRMFEEELATGDEHKLQRLLDPHVKVEINGREIIGREEWTNHLDHIRLELHDTKLREVRVQGDKIHVHGKTDIIIKVGDKSERHHVEVLFIIKKINGRWILERVHVR”, with 1.13.
For the sequence “SEEEEFARQMMEHFLKNFITGNEELFKENLDPDVRIIIVVNGREFENVGREHFWHHFRRSFEELGVKHLHLKDIRVINGRLFLFAEIEIGDKRVELHFLVLKVDGKWVIEELHIKFL”, the protease stability score is 2.32.
With “SEEEEFLEKLMREFVHDLLTGDEDRIRELADPHVKFEMDVNGVRFRAHGREEMLRELRRFWKEIRVKHIQTHDVKNVGDKAHSDVREVVEVDGREERHESEIIVVTINGRMQSVVLIFK”, the protease stability score stood at 1.52.
Sequence “SEEEEFSHNLLNFMLHVIHTGDFDLLLDLMDPDTRVDINGKRHHGRDAMRIWVTLLGIERVETDVHHISIYGDKARIDGRVHYNGKTQRFEIHSRKIDGKWLNTEIKWD” had a protease stability score of 1.09.
The sequence “SEEEEFTKLLLELLAHALRTGDESMLQYLADPNVRIDINGKELHGMEVLTHWLRRIDHIDSFFHIDHIDLVDGKLKVNGRTELIVRQGDKSHHSEWDVRIISDKVNGRWLLESISFK” showed a protease stability score of 2.08.
“SEEEEFVELAVRLFLETMRTGDEKDINRLADPHTRNIVNGRDIIGREELTRQLHEILHFFKNVQVHIEEVRWQGNYIVLKILWNFDGQTMEVHVYARKIDGRWVETEFEFR”: the protease stability score came to 2.08.
Sequence “SEEEEFVEVAIKIVQEIRKTGDEDEQERLADPHVRFDINGQDIHGREKWTKWVHEIRVRMKHVRERHITVINGKAHIHGEVDVHFHVNGVELRIDTKYTVVIEKVNGRWRLREVHLV” yielded a protease stability score of 2.22.
“SEEEEFWKHIAKVMLDLVTTGNEDLFMKMADPNTKSEFNGRTVVGRERIAEILKKFKNITIIIHHIDIQGEKVRIHGRVLIGDKEIEDDWELVVVDGKIQRLHFEHV” gave a protease stability score of 1.29.

(Values after the NTF2 design screens of Basanta et al. (2020).)
